Laboratory results: patent US7067474B1, “Agents for treating human illnesses based on β-catenin, and the production and use thereof” (Max-Delbruck-Centrum fur Molekulare Medizin, priority 1998, dated 2006)

Assays:
Assay in all cases: yeast 2-hybrid; - means 60-100% of the wild type interaction
[1] = target: T1, human β-catenin (Leu218-Leu781) mutant Trp 338 to alanine, Gal-4 activation domain fusion (human, UniProt P35222 218-781)
T1 sequence: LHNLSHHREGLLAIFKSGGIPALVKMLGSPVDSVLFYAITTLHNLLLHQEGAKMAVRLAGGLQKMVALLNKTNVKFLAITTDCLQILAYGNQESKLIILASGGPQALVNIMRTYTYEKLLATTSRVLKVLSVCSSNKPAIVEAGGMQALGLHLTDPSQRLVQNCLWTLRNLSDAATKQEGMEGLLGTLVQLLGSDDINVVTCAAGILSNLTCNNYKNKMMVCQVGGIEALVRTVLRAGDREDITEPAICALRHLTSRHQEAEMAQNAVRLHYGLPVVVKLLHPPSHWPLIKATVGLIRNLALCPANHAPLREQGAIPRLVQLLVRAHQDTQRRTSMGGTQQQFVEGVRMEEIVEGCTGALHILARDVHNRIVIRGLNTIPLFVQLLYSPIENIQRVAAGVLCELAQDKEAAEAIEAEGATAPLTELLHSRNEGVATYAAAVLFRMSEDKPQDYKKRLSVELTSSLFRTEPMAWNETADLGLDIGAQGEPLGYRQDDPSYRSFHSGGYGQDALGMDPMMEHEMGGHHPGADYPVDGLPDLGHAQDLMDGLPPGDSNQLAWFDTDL
Protocol: (§1) 4. Preparation and testing of mutants of β-catenin modulating the interaction with LEF-1, APC, conductin or E-cadherin The mutagenesis of β-catenin in the armadillo repeats 3–8 was carried out by means of the "mutagenesis kit" of the company Clontech according to the producer's record and the mutants were checked by sequencing (FIG. 5). In all mutants the original amino acid was substituted by alanine. For analyzing the interactions the cDNA of human β-catenin (armadillo repeat 3 up to the C-terminal end of the protein) coding for the amino acids Leu218–Leu7 µl or its mutants was cloned into the fusion vector for the activation domain of Gal-4 (pGAD424, Clontech). The cDNA for the binding domains of the interaction partners was cloned into the Lex-A fusion vector BTM 116. To this end, the cDNA of LEF-1 for the amino acids 1–99, conductin for the amino acids Ala342–ARG465; of human APC for the amino acids His1012–Glu1215 (APC 15 amino acid repeats) and for the amino acids Ser1259Asp 1400 (APC 20 amino acid repeats) and E-cadherin for the amino acids Gin773–Asp884 (cytoplasmatic domain) were amplified with the respective primers PCR. The interaction of the Lex-A hybrids with β-catenin and its mutants was quantified by means of the β-galactosidase reporter activity in the yeast 2-hybrid system (report: "Matchmaker". Clontech) (Tab. 2 and FIG. 6).

[2] = target: T2, human β-catenin (Leu218-Leu781) mutant Lys 394 to alanine, Gal-4 activation domain fusion (human, UniProt P35222 218-781)
T2 sequence: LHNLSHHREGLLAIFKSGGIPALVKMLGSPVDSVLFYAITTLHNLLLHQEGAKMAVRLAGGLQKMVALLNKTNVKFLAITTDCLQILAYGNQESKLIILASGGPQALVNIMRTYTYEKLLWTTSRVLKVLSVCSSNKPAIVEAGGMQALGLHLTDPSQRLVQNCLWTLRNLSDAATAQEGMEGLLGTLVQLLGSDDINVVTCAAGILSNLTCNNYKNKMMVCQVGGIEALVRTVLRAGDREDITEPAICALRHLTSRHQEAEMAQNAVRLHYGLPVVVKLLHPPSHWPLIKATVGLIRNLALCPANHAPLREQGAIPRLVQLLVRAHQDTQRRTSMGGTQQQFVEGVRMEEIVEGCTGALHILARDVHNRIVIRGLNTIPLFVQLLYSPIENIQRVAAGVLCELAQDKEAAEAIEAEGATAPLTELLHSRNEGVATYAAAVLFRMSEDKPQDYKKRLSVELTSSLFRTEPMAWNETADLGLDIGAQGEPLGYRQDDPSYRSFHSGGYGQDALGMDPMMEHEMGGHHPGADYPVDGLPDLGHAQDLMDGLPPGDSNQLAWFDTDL
Protocol: as §1

[3] = target: T3, human β-catenin (Leu218-Leu781) mutant Arg 457 to alanine, Gal-4 activation domain fusion (human, UniProt P35222 218-781)
T3 sequence: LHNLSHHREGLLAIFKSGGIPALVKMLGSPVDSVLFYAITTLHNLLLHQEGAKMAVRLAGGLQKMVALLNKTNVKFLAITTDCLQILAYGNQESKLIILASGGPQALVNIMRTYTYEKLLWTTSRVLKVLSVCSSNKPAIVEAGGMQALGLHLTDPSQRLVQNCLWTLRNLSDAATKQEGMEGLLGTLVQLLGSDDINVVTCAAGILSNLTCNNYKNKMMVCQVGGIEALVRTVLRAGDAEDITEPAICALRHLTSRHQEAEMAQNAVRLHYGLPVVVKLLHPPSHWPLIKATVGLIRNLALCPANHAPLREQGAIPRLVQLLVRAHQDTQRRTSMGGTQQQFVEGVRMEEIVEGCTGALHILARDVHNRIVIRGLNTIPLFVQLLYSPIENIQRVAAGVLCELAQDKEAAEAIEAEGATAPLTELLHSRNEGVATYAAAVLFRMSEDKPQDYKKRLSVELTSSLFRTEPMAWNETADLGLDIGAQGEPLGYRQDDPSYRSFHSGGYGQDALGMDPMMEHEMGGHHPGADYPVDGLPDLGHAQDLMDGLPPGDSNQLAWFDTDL
Protocol: as §1

binding result [1]: binds | binding result [2]: binds | binding result [3]: binds
B1: LEF-1 amino acids 1-99 fused to Lex-A (vector BTM 116) (other, UniProt P0A7C2 1-202, looked up)
chain: MKALTARQQEVFDLIRDHISQTGMPPTRAEIAQRLGFRSPNAAEEHLKALARKGVIEIVSGASRGIRLLQEEEEGLPLVGRVAAGEPLLAQQHIEGHYQVDPSLFKPNADFLLRVSGMSMKDIGIMDGDLLAVHKTQDVRNGQVVVARIDDEVTVKRLKKQGNKVELLPENSEFKPIVVDLRQQSFTIEGLAVGVIRNGDWLMPQLSGGGGGGDPELCATDEMIPFKDEGDPQKEKIFAEISHPEEEGDLADIKSSLVNESEIIPASNGHEVVRQAPSSQEPYHDKAREHPDEGKHPDGGL
notes: Order of the fusion follows the vector; also called LEF-1/TCF-4
